B1: AB047 (antibody, human IgG1, kappa, V domains shown)
VH: QVQLQQSGAELVKPGASVKISCKASGYTFTDYYINWVKLAPGQGLEWIGWIYPGSGNTKYNEKFKGKATLTIDTSSSTAYMQLSSLTSEDTAVYFCVRDSPFFDYWGQGTLLTVSS
VL: DIVLTQSPDSLAVSLGERVTMNCKSSQSLLNSGMRKSFLAWYQQKPGQSPKLLIYWASTRESGVPDRFTGSGSGTDFTLTISSVQAEDVAVYYCKQSYHLFTFGSGTKLEIKR
B2: DVD258 (bispecific antibody, human IgG1, kappa)
heavy: not shown
light: DIVLTQSPDSLAVSLGERVTMNCKSSQSLLNSGMRKSFLAWYQQKPGQSPKLLIYWASTRESGVPDRFTGSGSGTDFTLTISSVQAEDVAVYYCKQSYHLFTFGSGTKLEIKRTVAAPDIQMTQSPSSLSASVGDRVTITCRASQDVSTAVAWYQQKPGKAPKLLIYSASFLYSGVPSRFSGSGSGTDFTLTISSLQPEDFATTYYCQQSYTGTVTFGQGTKVEIKRTVAAPSVFIFPPSDEQLKSGTASVVCLLNNFYPREAKVQWKVDNALQSGNSQESVTEQDSKDSTYSLSSTLTLSKADYEKHKVYACEVTHQGLSSPVTKSFNRGEC
notes: N-terminal VD PlGF, C-terminal VD DLL4; also called VD258H; VD258L
B3: AB063 (antibody, human IgG1, kappa, V domains shown)
VH: EVQLVESGGGLVQPGGSLRLSCAASGFTFSIYSMNWVRQAPGKGLEWVSYISSSSSTIYYADSVKGRFTISRDNAKNSLYLQMNSLRDEDTAVYYCARDRGDFDAFDIWGQGTMVTVSS
VL: DIQMTQSPSSLSASVGDRVTITCQASQDITNYLNWYQQKPGKAPKLLIYDASNLETGVPSRFSGSGSGTDFTFTISSLQPEDIATYNCQQCENFPITFGQGTRLEIKR
notes: also called AB063VH; AB063VL
B4: AB062 (antibody, human IgG1, kappa, V domains shown)
VH: QVQLQQWGAGLLKPSETLSLTCAVYGGSFSGYYWSWIRQPPGKGLEWIGEINHSGSTNYNPSLKSRVTISVETSKNQFSLKLSSVTAADTAVYYCARDKWTWYFDLWGRGTLVTVSS
VL: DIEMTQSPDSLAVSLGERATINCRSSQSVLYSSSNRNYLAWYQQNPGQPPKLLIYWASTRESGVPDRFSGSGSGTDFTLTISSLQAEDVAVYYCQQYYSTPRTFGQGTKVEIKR
notes: also called AB062VH; AB062VL
B5: DVD543 (bispecific antibody, human IgG1, kappa)
heavy: not shown
light: AIQMTQSSSSFSVSLGDRVTITCKASEDIYNRFAWYQQKPGNAPRLLISGAASLEAGVPSRFSGSGSGQDYTLSITSLQTEDVATYYCQQYWSTPWTFGGGTKLEIKRTVAAPDIQMTQSPSSLSASVGDRVTITCRASQDVSTAVAWYQQKPGKAPKLLIYSASFLYSGVPSRFSGSGSGTDFTLTISSLQPEDFATYYCQQSYTTPPTFGQGTKVEIKRTVAAPSVFIFPPSDEQLKSGTASVVCLLNNFYPREAKVQWKVDNALQSGNSQESVTEQDSKDSTYSLSSTLTLSKADYEKHKVYACEVTHQGLSSPVTKSFNRGEC
notes: HC linker short, LC linker short; also called DVD-Ig DVD543
B6: DVD559 (bispecific antibody, human IgG1, kappa)
heavy: not shown
light: B5 light
notes: HC linker long, LC linker short; also called DVD-Ig DVD559
B7: DVD551 (bispecific antibody, human IgG1, kappa)
heavy: not shown
light: AIQMTQSSSSFSVSLGDRVTITCKASEDIYNRFAWYQQKPGNAPRLLISGAASLEAGVPSRFSGSGSGQDYTLSITSLQTEDVATYYCQQYWSTPWTFGGGTKLEIKRTVAAPSVFIFPPDIQMTQSPSSLSASVGDRVTITCRASQDVSTAVAWYQQKPGKAPKLLIYSASFLYSGVPSRFSGSGSGTDFTLTISSLQPEDFATYYCQQSYTTPPTFGQGTKVEIKRTVAAPSVFIFPPSDEQLKSGTASVVCLLNNFYPREAKVQWKVDNALQSGNSQESVTEQDSKDSTYSLSSTLTLSKADYEKHKVYACEVTHQGLSSPVTKSFNRGEC
notes: HC linker long, LC linker long; also called DVD-Ig DVD551
B8: DVD581 (bispecific antibody, human IgG1, kappa)
heavy: not shown
light: DIVLTQSPDSLAVSLGERVTMNCKSSQSLLNSGMRKSFLAWYQQKPGQSPKLLIYWASTRESGVPDRFTGSGSGTDFTLTISSVQAEDVAVYYCKQSYHLFTFGSGTKLEIKRTVAAPSVFIFPPDIQMTQSPSSLSASVGDRVTITCRASQDVSTAVAWYQQKPGKAPKLLIYSASFLYSGVPSRFSGSGSGTDFTLTISSLQPEDFATYYCQQSYTTPPTFGQGTKVEIKRTVAAPSVFIFPPSDEQLKSGTASVVCLLNNFYPREAKVQWKVDNALQSGNSQESVTEQDSKDSTYSLSSTLTLSKADYEKHKVYACEVTHQGLSSPVTKSFNRGEC
notes: HC linker long, LC linker long; also called DVD-Ig DVD581
B9: DVD561 (bispecific antibody, human IgG1, kappa)
heavy: not shown
light: AIQMTQSSSSFSVSLGDRVTITCKASEDIYNRFAWYQQKPGNAPRLLISGAASLEAGVPSRFSGSGSGQDYTLSITSLQTEDVATYYCQQYWSTPWTFGGGTKLEIKRTVAAPDIQMTQSPSSLSASVGDRVTITCRASQVIRRSLAWYQQKPGKAPKLLIYAASNLASGVPSRFSGSGSGTDFTLTISSLQPEDFATYYCQQSNTSPLTFGQGTKVEIKRTVAAPSVFIFPPSDEQLKSGTASVVCLLNNFYPREAKVQWKVDNALQSGNSQESVTEQDSKDSTYSLSSTLTLSKADYEKHKVYACEVTHQGLSSPVTKSFNRGEC
notes: outer AB074 (PlGF), inner AB071 (VEGF); HC linker long, LC linker short; also called DVD-Ig DVD561
B10: DVD446 (bispecific antibody, human IgG1, kappa)
heavy: not shown
light: DIQMTQSPSSLSASVGDRVTITCRASQVIRRSLAWYQQKPGKAPKLLIYAASNLASGVPSRFSGSGSGTDFTLTISSLQPEDFATYYCQQSNTSPLTFGQGTKVEIKRTVAAPDIVMTQSPDSLAVSLGERATISCRASESVDNYGISFMKWFQQKPGQPPKLLIYAASNQGSGVPDRFSGSGSGTDFTLTISSLQAEDVAVYYCQQSKEVPWTFGGGTKVEIKRTVAAPSVFIFPPSDEQLKSGTASVVCLLNNFYPREAKVQWKVDNALQSGNSQESVTEQDSKDSTYSLSSTLTLSKADYEKHKVYACEVTHQGLSSPVTKSFNRGEC
notes: DVD-Ig; outer AB071 (VEGF), inner AB069 (DLL4); HC short, LC short linker; also called DVD446H; DVD446L
B11: DVD512 (bispecific antibody, human IgG1, lambda, L234A L235A)
heavy: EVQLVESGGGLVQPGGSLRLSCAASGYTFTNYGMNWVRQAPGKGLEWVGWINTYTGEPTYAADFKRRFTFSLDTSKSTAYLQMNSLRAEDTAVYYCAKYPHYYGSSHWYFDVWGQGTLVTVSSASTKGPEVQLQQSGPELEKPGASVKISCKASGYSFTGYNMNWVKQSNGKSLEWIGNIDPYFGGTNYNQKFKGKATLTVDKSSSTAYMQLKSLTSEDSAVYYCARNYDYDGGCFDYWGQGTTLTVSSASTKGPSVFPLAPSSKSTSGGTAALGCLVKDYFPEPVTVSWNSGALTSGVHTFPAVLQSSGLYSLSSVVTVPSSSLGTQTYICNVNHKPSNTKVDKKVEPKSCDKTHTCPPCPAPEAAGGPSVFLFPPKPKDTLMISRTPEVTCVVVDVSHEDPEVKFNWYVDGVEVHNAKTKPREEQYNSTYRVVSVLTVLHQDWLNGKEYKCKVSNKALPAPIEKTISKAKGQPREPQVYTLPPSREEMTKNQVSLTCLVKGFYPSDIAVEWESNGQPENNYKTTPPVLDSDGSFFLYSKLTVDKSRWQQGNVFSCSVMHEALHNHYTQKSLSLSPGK
light: DIQMTQSPSSLSASVGDRVTITCSASQDISNYLNWYQQKPGKAPKVLIYFTSSLHSGVPSRFSGSGSGTDFTLTISSLQPEDFATYYCQQYSTVPWTFGQGTKVEIKRTVAAPQAVVTQESALTTSPGETVTLTCRSSTGAVTTSNYANWVQEKPDHLFTGLIGGTNNRAPGVPARFSGSLIGDKAALTITGAQTEDEAIYFCALWYSNHWVFGGGTKLTVLGQPKAAPSVTLFPPSSEELQANKATLVCLISDFYPGAVTVAWKADSSPVKAGVETTTPSKQSNNKYAASSYLSLTPEQWKSHRSYSCQVTHEGSTVEKTVAPTECS
notes: DVD-Ig; HC short, LC short linker; also called DVD512H; DVD512L
B12: DVD492 (bispecific antibody, human IgG1, kappa)
heavy: not shown
light: DIQMTQSPSSLSASVGDRVTITCRASQVIRRSLAWYQQKPGKAPKLLIYAASNLASGVPSRFSGSGSGTDFTLTISSLQPEDFATYYCQQSNTSPLTFGQGTKVEIKRTVAAPDIQMTQSSSYLSVSLGGRVTITCKASDHINNWLAWYQQKPGNAPRLLISGATSLETGVPSRFSGSGSGKDYTLSITSLQTEDVATYYCQQYWSIPLTFGAGTKLELKRTVAAPSVFIFPPSDEQLKSGTASVVCLLNNFYPREAKVQWKVDNALQSGNSQESVTEQDSKDSTYSLSSTLTLSKADYEKHKVYACEVTHQGLSSPVTKSFNRGEC
notes: DVD-Ig; outer AB071 (VEGF), inner AB072 (DLL4); HC short, LC short linker; also called DVD492H; DVD492L
B13: DVD468 (bispecific antibody, human IgG1, kappa)
heavy: not shown
light: DIQMTQSPSSLSASVGDRVTITCRASQVIRRSLAWYQQKPGKAPKLLIYAASNLASGVPSRFSGSGSGTDFTLTISSLQPEDFATYYCQQSNTSPLTFGQGTKVEIKRTVAAPDIQMTQSPSSLSASVGDRVTITCRASQDVSTAVAWYQQKPGKAPKLLIYSASFLYSGVPSRFSGSGSGTDFTLTISSLQPEDFATTYYCQQSYTGTVTFGQGTKVEIKRTVAAPSVFIFPPSDEQLKSGTASVVCLLNNFYPREAKVQWKVDNALQSGNSQESVTEQDSKDSTYSLSSTLTLSKADYEKHKVYACEVTHQGLSSPVTKSFNRGEC
notes: DVD-Ig; outer AB071 (VEGF), inner AB015 (DLL4); HC short, LC short linker; also called DVD468H; DVD468L
B14: DVD516 (bispecific antibody, human IgG1, lambda)
heavy: not shown
light: DIQMTQSPSSLSASVGDRVTITCRASQVIRRSLAWYQQKPGKAPKLLIYAASNLASGVPSRFSGSGSGTDFTLTISSLQPEDFATYYCQQSNTSPLTFGQGTKVEIKRTVAAPQAVVTQESALTTSPGETVTLTCRSSTGAVTTSNYANWVQEKPDHLFTGLIGGTNNRAPGVPARFSGSLIGDKAALTITGAQTEDEAIYFCALWYSNHWVFGGGTKLTVLGQPKAAPSVTLFPPSSEELQANKATLVCLISDFYPGAVTVAWKADSSPVKAGVETTTPSKQSNNKYAASSYLSLTPEQWKSHRSYSCQVTHEGSTVEKTVAPTECS
notes: DVD-Ig; outer AB071 (VEGF), inner AB073 (DLL4); HC short, LC short linker; also called DVD516H; DVD516L
B15: DVD043 (bispecific antibody, human IgG1, kappa)
heavy: not shown
light: DIQMTQSPSSLSASVGDRVTITCSASQDISNYLNWYQQKPGKAPKVLIYFTSSLHSGVPSRFSGSGSGTDFTLTISSLQPEDFATYYCQQYSTVPWTFGQGTKVEIKRTVAAPDIQMTQSPSSLSASVGDRVTITCRASQDVSTAVAWYQQKPGKAPKLLIYSASFLYSGVPSRFSGSGSGTDFTLTISSLQPEDFATTYYCQQSYTGTVTFGQGTKVEIKRTVAAPSVFIFPPSDEQLKSGTASVVCLLNNFYPREAKVQWKVDNALQSGNSQESVTEQDSKDSTYSLSSTLTLSKADYEKHKVYACEVTHQGLSSPVTKSFNRGEC
notes: DVD-Ig; HC short, LC short linker; also called DVD043H; DVD043L

Molecular target: T1, Placental GF (UniProt P49763-2 21-149, limits assumed)
T1 construct: Bought reagent; also called PlGF; PLGF
T1 sequence (looked up): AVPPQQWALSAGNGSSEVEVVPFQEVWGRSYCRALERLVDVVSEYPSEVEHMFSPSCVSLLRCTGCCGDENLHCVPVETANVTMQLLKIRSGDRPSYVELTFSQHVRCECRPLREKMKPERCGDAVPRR
Assay: Biacore SPR

Row | Binder | Kd [nM] | koff [s⁻¹] | kon [M⁻¹ s⁻¹]
1 | B1 | 0.0284 | 0.000108 | 3.8e+06
2 | B2 | < 0.254 | 0.00254 | > 1e+07

Molecular target: T2, ErbB3 (ErbB3/FC Chimera-His tag) (UniProt P21860 20-643, limits assumed)
T2 construct: extracellular domain
Assay: SPR (Biacore); parent antibody
Experimental: The BIACORE assay (Biacore, Inc, Piscataway, N.J.) determines the affinity of antibodies or DVD-Ig with kinetic measurements of on-rate and off-rate constants. Binding of antibodies or DVD-Ig to a target antigen (for example, a purified recombinant target antigen) is determined by surface plasmon resonance-based measurements with a Biacore® 1000 or 3000 instrument (Biacore® AB, Uppsala, Sweden) using running HBS-EP (10 mM HEPES [pH 7.4], 150 mM NaCl, 3 mM EDTA, and 0.005% surfactant P20) at 25° C. […] For example, approximately 5000 RU of goat anti-mouse IgG, (Fcγ), fragment specific polyclonal antibody (Pierce Biotechnology Inc, Rockford, Ill.) diluted in 10 mM sodium acetate (pH 4.5) is directly immobilized across a CM5 research grade biosensor chip using a standard amine coupling kit according to manufacturer's instructions and procedures at 25 μg/ml. Unreacted moieties on the biosensor surface are blocked with ethanolamine. Modified carboxymethyl dextran surface in flowcell 2 and 4 is used as a reaction surface. Unmodified carboxymethyl dextran without goat anti-mouse IgG in flow cell 1 and 3 is used as the reference surface. For kinetic analysis, rate equations derived from the 1:1 Langmuir binding model are fitted simultaneously to association and dissociation phases of all eight injections (using global fit analysis) with the use of Biaevaluation 4.0.1 software. Purified antibodies or DVD-Ig are diluted in HEPES-buffered saline for capture across goat anti-mouse IgG specific reaction surfaces. Antibodies or DVD-Ig to be captured as a ligand (25 μg/ml) are injected over reaction matrices at a flow rate of 5 μl/min. The association and dissociation rate constants, kₒₙ (M⁻¹s⁻¹) and koff (s⁻¹) are determined under a continuous flow rate of 25 μl/min. Rate constants are derived by making kinetic binding measurements at different antigen concentrations ranging from 10-200 nM. The equilibrium dissociation constant (M) of the reaction between antibodies or DVD-Igs and the target antigen is then calculated from the kinetic rate constants by the following formula: KD=koff/kₒₙ. Binding is recorded as a function of time and kinetic rate constants are calculated.

Row | Binder | Kd [nM] | koff [s⁻¹] | kon [M⁻¹ s⁻¹]
3 | B3 | 0.15 | 0.000175 | 1.17e+06
4 | B4 | 1.36 | 0.000117 | 86600

Molecular target: T3, VEGF (UniProt P15692 27-191, limits assumed)
T3 construct: bought antigen coated on the ELISA plate
Assay: direct bind ELISA, C-terminal VD
Experimental: Enzyme Linked Immunosorbent Assays to screen for antibodies that bind a desired target antigen were performed as follows. […] Plates were washed four times with PBS containing 0.02% Tween 20. Plates were blocked by the addition of 300 μL/well blocking solution (non-fat dry milk powder, various retail suppliers, diluted to 2% in PBS) for ½ hour at room temperature. Plates were washed four times after blocking with PBS containing 0.02% Tween 20.
Plates were washed 4 times with PBS containing 0.02% Tween 20.

T3 sequence (P15692 other isoform, or with tags, fused parts or gaps limits assumed): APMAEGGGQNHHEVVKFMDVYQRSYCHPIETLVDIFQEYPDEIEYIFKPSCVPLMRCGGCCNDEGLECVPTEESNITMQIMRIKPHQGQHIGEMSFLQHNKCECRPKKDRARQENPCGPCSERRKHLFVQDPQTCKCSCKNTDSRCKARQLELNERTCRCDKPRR

Row | Binder | EC50 [nM]
5 | B5 | 1120
6 | B6 | 39.2
7 | B7 | 1590
8 | B8 | 35.9
9 | B9 | 241

Molecular target: T4, PlGF (UniProt P49763-2 21-149, limits assumed)
T4 construct: bought antigen coated on the ELISA plate; also called Placental GF
T4 sequence (looked up): T1 sequence (looked up)
Assay: direct bind ELISA, N-terminal VD

Row | Binder | EC50 [nM]
10 | B5 | 0.14
11 | B6 | 0.13
12 | B7 | 97
13 | B8 | 0.39
14 | B9 | 1.04

Molecular target: T5, DLL4 ECD/His tag (R&D 1506-D4-050) (UniProt Q9NR61 27-529)
T5 construct: extracellular domain; Bought antigen coated on the ELISA plate; not shown: His tag
Assay: direct bind ELISA, DLL4 on plate; DLL4 VD C-term.; HC Short, LC Short

Row | Binder | EC50 [nM]
15 | B10 | 13.9
16 | B11 | 1.71
17 | B12 | 1.77
18 | B13 | 2.28
19 | B14 | 4.33
20 | B15 | 0.67
